Measured values from patent US20210230570.

What was measured:
[1] = target: antithrombin III (plasma purified human AT-III), in complex with unfractionated heparin

Sequence of Factor X, P00742 (P00742 whole entry, looked up): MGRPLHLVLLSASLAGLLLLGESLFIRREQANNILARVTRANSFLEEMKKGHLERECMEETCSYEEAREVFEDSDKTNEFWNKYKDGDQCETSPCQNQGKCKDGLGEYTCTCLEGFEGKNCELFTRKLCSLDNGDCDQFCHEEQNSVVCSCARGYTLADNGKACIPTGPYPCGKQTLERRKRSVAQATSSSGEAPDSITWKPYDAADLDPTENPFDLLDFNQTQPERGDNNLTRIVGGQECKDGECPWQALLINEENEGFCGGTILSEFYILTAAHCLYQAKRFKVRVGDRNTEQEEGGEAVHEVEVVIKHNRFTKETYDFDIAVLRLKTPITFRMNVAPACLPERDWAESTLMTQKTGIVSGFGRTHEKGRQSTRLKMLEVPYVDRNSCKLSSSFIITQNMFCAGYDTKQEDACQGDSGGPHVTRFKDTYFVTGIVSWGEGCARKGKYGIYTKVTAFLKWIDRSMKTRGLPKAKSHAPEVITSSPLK
Sequence of Factor X (FX), P00742 (P00742 whole entry, looked up): as above

B1: FIXa-K247N/N249S/R318Y/R338E/R403E (protein)
chain 1: YNSGKLEEFVQGNLERECMEEKCSFEEAREVFENTERTTEFWKQYVDGDQCESNPCLNGGSCKDDINSYECWCPFGFEGKNCELDVTCNIKNGRCEQFCKNSADNKVVCSCTEGYRLAENQKSCEPAVPFPCGRVSVSQTSKLTR
chain 2: VVGGEDAKPGQFPWQVVLNGKVDAFCGGSIVNEKWIVTAAHCVETGVKITVVAGEHNIEETEHTEQNRSVIRIIPHHNYNAAINKYNHDIALLELDEPLVLNSYVTPICIADKEYTNIFLKFGSGYVSGWGRVFHKGYSALVLQYLRVPLVDRATCLESTKFTIYNNMFCAGFHEGGRDSCQGDSGGPHVTEVEGTSFLTGIISWGEECAMKGKYGIYTKVSEYVNWIKEKTKLT
With B1 the kcat/KM (Factor X, P00742) was 2.3e+08 M⁻¹ s⁻¹, the KM (Factor X (FX), P00742) was 0.0536 µM and the kcat of FX activation by FIXa in the Xase complex (FVIIIa, PC/PS vesicles, Ca2+) (Factor X (FX), P00742) was 10.5 s⁻¹.

B2: FIXa-D203N/F205T/K228N (protein)
chain 1: YNSGKLEEFVQGNLERECMEEKCSFEEAREVFENTERTTEFWKQYVDGDQCESNPCLNGGSCKDDINSYECWCPFGFEGKNCELDVTCNIKNGRCEQFCKNSADNKVVCSCTEGYRLAENQKSCEPAVPFPCGRVSVSQTSKLTR
chain 2: VVGGEDAKPGQFPWQVVLNGKVNATCGGSIVNEKWIVTAAHCVETGVNITVVAGEHNIEETEHTEQKRNVIRIIPHHNYNAAINKYNHDIALLELDEPLVLNSYVTPICIADKEYTNIFLKFGSGYVSGWGRVFHKGRSALVLQYLRVPLVDRATCLRSTKFTIYNNMFCAGFHEGGRDSCQGDSGGPHVTEVEGTSFLTGIISWGEECAMKGKYGIYTKVSRYVNWIKEKTKLT
With B2 the “% of WT (kcat/KM)” value (Factor X, P00742) was 30%, the KM (Catalytic activity of FIXa variants) (Factor X, P00742) was 0.0399 µM and the kcat/KM (Factor X, P00742) was 1.4e+07 M⁻¹ s⁻¹. It also gave a kcat/KM for FX activation (Xase assay with FVIIIa, PC/PS vesicles, Ca2+) (Factor X (FX), P00742) of 1.4e+07 M⁻¹ s⁻¹, a K0.5 [1] of 822 nM and a K0.5-mut/K0.5-wt [1] of 42.5.

B3: FIXa-D203N/F205T/R318Y/E410N (protein)
chain 1: YNSGKLEEFVQGNLERECMEEKCSFEEAREVFENTERTTEFWKQYVDGDQCESNPCLNGGSCKDDINSYECWCPFGFEGKNCELDVTCNIKNGRCEQFCKNSADNKVVCSCTEGYRLAENQKSCEPAVPFPCGRVSVSQTSKLTR
chain 2: VVGGEDAKPGQFPWQVVLNGKVNATCGGSIVNEKWIVTAAHCVETGVKITVVAGEHNIEETEHTEQKRNVIRIIPHHNYNAAINKYNHDIALLELDEPLVLNSYVTPICIADKEYTNIFLKFGSGYVSGWGRVFHKGYSALVLQYLRVPLVDRATCLRSTKFTIYNNMFCAGFHEGGRDSCQGDSGGPHVTEVEGTSFLTGIISWGEECAMKGKYGIYTKVSRYVNWIKNKTKLT
In the case of B3, the KM (Catalytic activity of FIXa variants) (Factor X, P00742) is reported as 0.0457 µM and the kcat/KM (M^-1s^-1), FX activation by FIXa in the Xase complex (Factor X (FX), P00742) is reported as 3.9e+07 M⁻¹ s⁻¹.

B4: FIXa-K247N/N249S/R318Y/R403E/E410N (protein)
chain 1: YNSGKLEEFVQGNLERECMEEKCSFEEAREVFENTERTTEFWKQYVDGDQCESNPCLNGGSCKDDINSYECWCPFGFEGKNCELDVTCNIKNGRCEQFCKNSADNKVVCSCTEGYRLAENQKSCEPAVPFPCGRVSVSQTSKLTR
chain 2: VVGGEDAKPGQFPWQVVLNGKVDAFCGGSIVNEKWIVTAAHCVETGVKITVVAGEHNIEETEHTEQNRSVIRIIPHHNYNAAINKYNHDIALLELDEPLVLNSYVTPICIADKEYTNIFLKFGSGYVSGWGRVFHKGYSALVLQYLRVPLVDRATCLRSTKFTIYNNMFCAGFHEGGRDSCQGDSGGPHVTEVEGTSFLTGIISWGEECAMKGKYGIYTKVSEYVNWIKNKTKLT
B4 was tested, and the kcat/KM (Factor X, P00742) was 2.7e+07 M⁻¹ s⁻¹, the KM (Factor X (FX), P00742) was 0.111 µM and the kcat of FX activation by FIXa in the Xase complex (FVIIIa, PC/PS vesicles, Ca2+) (Factor X (FX), P00742) was 2.9 s⁻¹.

B5: FIXa-R318Y/R338E/R403E (protein)
chain 1: YNSGKLEEFVQGNLERECMEEKCSFEEAREVFENTERTTEFWKQYVDGDQCESNPCLNGGSCKDDINSYECWCPFGFEGKNCELDVTCNIKNGRCEQFCKNSADNKVVCSCTEGYRLAENQKSCEPAVPFPCGRVSVSQTSKLTR
chain 2: VVGGEDAKPGQFPWQVVLNGKVDAFCGGSIVNEKWIVTAAHCVETGVKITVVAGEHNIEETEHTEQKRNVIRIIPHHNYNAAINKYNHDIALLELDEPLVLNSYVTPICIADKEYTNIFLKFGSGYVSGWGRVFHKGYSALVLQYLRVPLVDRATCLESTKFTIYNNMFCAGFHEGGRDSCQGDSGGPHVTEVEGTSFLTGIISWGEECAMKGKYGIYTKVSEYVNWIKEKTKLT
B5 was tested, and the “% of WT (kcat/KM)” value (Factor X, P00742) was 134%, the KM (Catalytic activity of FIXa variants) (Factor X, P00742) was 0.0537 µM and the kcat/KM (Factor X, P00742) was 6.2e+07 M⁻¹ s⁻¹. For the same protein, the kcat/KM for FX activation (Xase assay with FVIIIa, PC/PS vesicles, Ca2+) (Factor X (FX), P00742) was 6.5e+07 M⁻¹ s⁻¹, the K0.5 [1] was over 10000 nM and the K0.5-mut/K0.5-wt [1] was over 517.

B6: FIXa-A103N/N105S/R318Y/R338E/R403E/E410N (protein)
chain 1: YNSGKLEEFVQGNLERECMEEKCSFEEAREVFENTERTTEFWKQYVDGDQCESNPCLNGGSCKDDINSYECWCPFGFEGKNCELDVTCNIKNGRCEQFCKNSNDSKVVCSCTEGYRLAENQKSCEPAVPFPCGRVSVSQTSKLTR
chain 2: VVGGEDAKPGQFPWQVVLNGKVDAFCGGSIVNEKWIVTAAHCVETGVKITVVAGEHNIEETEHTEQKRNVIRIIPHHNYNAAINKYNHDIALLELDEPLVLNSYVTPICIADKEYTNIFLKFGSGYVSGWGRVFHKGYSALVLQYLRVPLVDRATCLESTKFTIYNNMFCAGFHEGGRDSCQGDSGGPHVTEVEGTSFLTGIISWGEECAMKGKYGIYTKVSEYVNWIKNKTKLT
Work on B6 yielded a KM (Catalytic activity of FIXa variants) (Factor X, P00742) of 0.0447 µM and a kcat/KM (M^-1s^-1), FX activation by FIXa in the Xase complex (Factor X (FX), P00742) of 1.5e+08 M⁻¹ s⁻¹.

B7: FIXa-Y155F/R318Y/R338E/R403E/E410N (protein)
chain 1: YNSGKLEEFVQGNLERECMEEKCSFEEAREVFENTERTTEFWKQYVDGDQCESNPCLNGGSCKDDINSYECWCPFGFEGKNCELDVTCNIKNGRCEQFCKNSADNKVVCSCTEGYRLAENQKSCEPAVPFPCGRVSVSQTSKLTR
chain 2: VVGGEDAKPGQFPWQVVLNGKVDAFCGGSIVNEKWIVTAAHCVETGVKITVVAGEHNIEETEHTEQKRNVIRIIPHHNYNAAINKYNHDIALLELDEPLVLNSYVTPICIADKEYTNIFLKFGSGYVSGWGRVFHKGYSALVLQYLRVPLVDRATCLESTKFTIYNNMFCAGFHEGGRDSCQGDSGGPHVTEVEGTSFLTGIISWGEECAMKGKYGIYTKVSEYVNWIKNKTKLT
Protein B7 has a KM (Catalytic activity of FIXa variants) (Factor X, P00742) of 0.0304 µM and a kcat/KM (M^-1s^-1), FX activation by FIXa in the Xase complex (Factor X (FX), P00742) of 1.9e+08 M⁻¹ s⁻¹.

B8: FIXa-R338E/R403E/E410N (protein)
chain 1: YNSGKLEEFVQGNLERECMEEKCSFEEAREVFENTERTTEFWKQYVDGDQCESNPCLNGGSCKDDINSYECWCPFGFEGKNCELDVTCNIKNGRCEQFCKNSADNKVVCSCTEGYRLAENQKSCEPAVPFPCGRVSVSQTSKLTR
chain 2: VVGGEDAKPGQFPWQVVLNGKVDAFCGGSIVNEKWIVTAAHCVETGVKITVVAGEHNIEETEHTEQKRNVIRIIPHHNYNAAINKYNHDIALLELDEPLVLNSYVTPICIADKEYTNIFLKFGSGYVSGWGRVFHKGRSALVLQYLRVPLVDRATCLESTKFTIYNNMFCAGFHEGGRDSCQGDSGGPHVTEVEGTSFLTGIISWGEECAMKGKYGIYTKVSEYVNWIKNKTKLT
For B8, the “% of WT (kcat/KM)” value (Factor X, P00742) was 411%, the KM (Catalytic activity of FIXa variants) (Factor X, P00742) was 0.0455 µM and the kcat/KM (Factor X, P00742) was 1.9e+08 M⁻¹ s⁻¹. The kcat/KM for FX activation (Xase assay with FVIIIa, PC/PS vesicles, Ca2+) (Factor X (FX), P00742) was 7.8e+07 M⁻¹ s⁻¹, the K0.5 [1] was 2350 nM and the K0.5-mut/K0.5-wt [1] was 122.

B9: FIXa-Y155F/K247N/N249S/R318Y/R403E/E410N (protein)
chain 1: YNSGKLEEFVQGNLERECMEEKCSFEEAREVFENTERTTEFWKQYVDGDQCESNPCLNGGSCKDDINSYECWCPFGFEGKNCELDVTCNIKNGRCEQFCKNSADNKVVCSCTEGYRLAENQKSCEPAVPFPCGRVSVSQTSKLTR
chain 2: VVGGEDAKPGQFPWQVVLNGKVDAFCGGSIVNEKWIVTAAHCVETGVKITVVAGEHNIEETEHTEQNRSVIRIIPHHNYNAAINKYNHDIALLELDEPLVLNSYVTPICIADKEYTNIFLKFGSGYVSGWGRVFHKGYSALVLQYLRVPLVDRATCLRSTKFTIYNNMFCAGFHEGGRDSCQGDSGGPHVTEVEGTSFLTGIISWGEECAMKGKYGIYTKVSEYVNWIKNKTKLT
Work on B9 yielded a kcat/KM (Factor X, P00742) of 1e+07 M⁻¹ s⁻¹, a KM (Factor X (FX), P00742) of 0.125 µM and a kcat of FX activation by FIXa in the Xase complex (FVIIIa, PC/PS vesicles, Ca2+) (Factor X (FX), P00742) of 1.2 s⁻¹.

B10: FIXa-D104N/K106S/R318Y/R338E/R403E/E410N (protein)
chain 1: YNSGKLEEFVQGNLERECMEEKCSFEEAREVFENTERTTEFWKQYVDGDQCESNPCLNGGSCKDDINSYECWCPFGFEGKNCELDVTCNIKNGRCEQFCKNSANNSVVCSCTEGYRLAENQKSCEPAVPFPCGRVSVSQTSKLTR
chain 2: VVGGEDAKPGQFPWQVVLNGKVDAFCGGSIVNEKWIVTAAHCVETGVKITVVAGEHNIEETEHTEQKRNVIRIIPHHNYNAAINKYNHDIALLELDEPLVLNSYVTPICIADKEYTNIFLKFGSGYVSGWGRVFHKGYSALVLQYLRVPLVDRATCLESTKFTIYNNMFCAGFHEGGRDSCQGDSGGPHVTEVEGTSFLTGIISWGEECAMKGKYGIYTKVSEYVNWIKNKTKLT
For B10, the KM (Catalytic activity of FIXa variants) (Factor X, P00742) was 0.0385 µM and the kcat/KM (M^-1s^-1), FX activation by FIXa in the Xase complex (Factor X (FX), P00742) was 1.7e+08 M⁻¹ s⁻¹.

B11: FIXa-D104N/K106S/Y155F/R318Y/R338E/R403E/E410N (protein)
chain 1: YNSGKLEEFVQGNLERECMEEKCSFEEAREVFENTERTTEFWKQYVDGDQCESNPCLNGGSCKDDINSYECWCPFGFEGKNCELDVTCNIKNGRCEQFCKNSANNSVVCSCTEGYRLAENQKSCEPAVPFPCGRVSVSQTSKLTR
chain 2: VVGGEDAKPGQFPWQVVLNGKVDAFCGGSIVNEKWIVTAAHCVETGVKITVVAGEHNIEETEHTEQKRNVIRIIPHHNYNAAINKYNHDIALLELDEPLVLNSYVTPICIADKEYTNIFLKFGSGYVSGWGRVFHKGYSALVLQYLRVPLVDRATCLESTKFTIYNNMFCAGFHEGGRDSCQGDSGGPHVTEVEGTSFLTGIISWGEECAMKGKYGIYTKVSEYVNWIKNKTKLT
Work on B11 yielded a KM (Catalytic activity of FIXa variants) (Factor X, P00742) of 0.048 µM and a kcat/KM (M^-1s^-1), FX activation by FIXa in the Xase complex (Factor X (FX), P00742) of 1.8e+08 M⁻¹ s⁻¹.

B12: FIXa-A103N/N105S/Y155F/R318Y/R338E/R403E/E410N (protein)
chain 1: YNSGKLEEFVQGNLERECMEEKCSFEEAREVFENTERTTEFWKQYVDGDQCESNPCLNGGSCKDDINSYECWCPFGFEGKNCELDVTCNIKNGRCEQFCKNSNDSKVVCSCTEGYRLAENQKSCEPAVPFPCGRVSVSQTSKLTR
chain 2: VVGGEDAKPGQFPWQVVLNGKVDAFCGGSIVNEKWIVTAAHCVETGVKITVVAGEHNIEETEHTEQKRNVIRIIPHHNYNAAINKYNHDIALLELDEPLVLNSYVTPICIADKEYTNIFLKFGSGYVSGWGRVFHKGYSALVLQYLRVPLVDRATCLESTKFTIYNNMFCAGFHEGGRDSCQGDSGGPHVTEVEGTSFLTGIISWGEECAMKGKYGIYTKVSEYVNWIKNKTKLT
With B12 the KM (Catalytic activity of FIXa variants) (Factor X, P00742) was 0.0507 µM and the kcat/KM (M^-1s^-1), FX activation by FIXa in the Xase complex (Factor X (FX), P00742) was 1.3e+08 M⁻¹ s⁻¹.
